Assays:
[1] = test system: HeLa Kyoto; experiment: solubility in G1/S (NP-40 vs SDS abundance) (log2 ratio); higher = more soluble; conditions: cell cycle stage: G1/S
[2] = test system: HeLa Kyoto; experiment: melting temperature (median over replicates), in situ; higher = more thermally stable
[3] = test system: HeLa Kyoto; experiment: solubility change mitosis vs G1/S (difference of NP-40 vs SDS log2 ratios) (log2 ratio difference); higher = more soluble in mitosis
[4] = test system: HeLa Kyoto; experiment: thermal stability score vs G1/S (z-score of summed log2 fold changes over temperatures); higher = more thermally stable than in G1/S
[5] = cell cycle stage: early G1 (4.5 h after nocodazole release)
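Throughout, for melting temperature (median over replicates), in situ: HeLa Kyoto cells synchronized by double thymidine or nocodazole block, proteins quantified by TMT10plex mass spectrometry, three independent biological replicates.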
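Throughout, for solubility change mitosis vs G1/S (difference of NP-40 vs SDS log2 ratios): synchronized HeLa Kyoto cells (double thymidine block for G1/S, nocodazole release for mitosis), protein amounts in NP-40 versus SDS lysates quantified by mass spectrometry, three biological replicates.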
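Throughout, for solubility in G1/S (NP-40 vs SDS abundance): HeLa Kyoto cells arrested at G1/S by double thymidine block, proteins quantified by TMT10plex mass spectrometry in mild NP-40 versus SDS extracts, three biological replicates.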
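Throughout, for thermal stability score vs G1/S (z-score of summed log2 fold changes over temperatures): synchronized HeLa Kyoto cells, proteins quantified by TMT10plex mass spectrometry, three biological replicates, mitosis taken 0.5 h after nocodazole release, G1/S directly after double thymidine block.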

Row | Sequence | solubility in G1/S (log2) [1] | melting temperature ([2]; cell cycle stage: G1/S) [°C] | melting temperature ([2]; cell cycle stage: mitosis) [°C] | solubility change mitosis (log2) [3] | thermal stability score [4, 5] | thermal stability score ([4]; cell cycle stage: mitosis)
1 | MGPLSARLLMQRGRPKSDRLGKIRSLDLSGLELLSEHLDPKLLCRLTQLQELDLSNNHLETLPDNLGLSHLRVLRCANNQLGDVTALCQFPKLEELSLEGNPFLTVNDNLKVSFLLPTLRKVNGKDASSTYSQVENLNRELTSRVTAHWEKFMATLGPEEEAEKAQADFVKSAVRDVRYGPESLSEFTQWRVRMISEELVAASRTQVQKANSPEKPPEAGAAHKPRARLAALKRPDDVPLSLSPSKRACASPSAQVEGSPVAGSDGSQPAVKLEPLHFLQCHSKNNSPQDLETQLWACAFEPAWEEGATSQTVATCGGEAVCVIDCQTGIVLHKYKAPGEEFFSVAWTALMVVTQAGHKKRWSVLAAAGLRGLVRLLHVRAGFCCGVIRAHKKAIATLCFSPAHETHLFTASYDKRIILWDIGVPNQDYEFQASQLLTLDTTSIPLRLCPVASCPDARLLAGCEGGCCCWDVRLDQPQKRRVCEVEFVFSEGSEASGRRVDGLAFVNEDIVASKGSGLGTICLWSWRQTWGGRGSQSTVAVVVLARLQWSSTELAYFSLSACPDKGIVLCGDEEGNVWLYDVSNILKQPPLLPAALQAPTQILKWPQPWALGQVVTKTMVNTVVANASFTYLTALTDSNIVAIWGRM [LRWD1] | -0.185 | 48 | 49.1 | -0.0674 | 1.14 | 1.7
2 | MGQGPRSPHKVGRRFPAGGKRGRGAKGSGRPLPGRKRQPWPPPDGRSEPAPDSHPHLSPEALGYFRRALSALKEAPETGEERDLMVHNIMKEVETQALALSTNRTGSEMLQELLGFSPLKPLCRVWAALRSNLRTVACHRCGVHVLQSALLQLPRLLGSAAEEEEEEEEDGKDGPTETLEELVLGLAAEVCDDFLVYCGDTHGSFVVRTLLQVLGGTILESERARPRGSQSSEAQKTPAQECKPADFEVPETFLNRLQDLSSSFLKDIAVFITDKISSFCLQVALQVLHRKLPQFCAHLCNAVIGYLSTRGSSVDGSPLLLFLRDQTSSRLLEQVLLVLEPPRLQSLFEEHLQGQLQTLAAHPIANFPLQRLLDAVTTPELLSPVFEELSPVLEAVLAQGHPGVVIALVGACRRVGAYQAKVLQLLLEAFHCAEPSSRQVACVPLFATLMAYEVYYGLTEEEGAVPAEHQVAMAAARALGDVTVLGSLLLQHLLHFSTPGLVLRSLGALTGPQLLSLAQSPAGSHVLDAILTSPSVTRKLRRRVLQNLKGQYVALACSRHGSRVLDAIWSGAALRARKEIAAELGEQNQELIRDPFGHHVARNVALTTFLKRREAWEQQQGAVAKRRRALNSILED [NOP9] | -0.0623 | 49.1 | 49.1 | 0.2 | 0.433 | 0.684
3 | MGQNDLMGTAEDFADQFLRVTKQYLPHVARLCLISTFLEDGIRMWFQWSEQRDYIDTTWNCGYLLASSFVFLNLLGQLTGCVLVLSRNFVQYACFGLFGIIALQTIAYSILWDLKFLMRNLALGGGLLLLLAESRSEGKSMFAGVPTMRESSPKQYMQLGGRVLLVLMFMTLLHFDASFFSIVQNIVGTALMILVAIGFKTKLAALTLVVWLFAINVYFNAFWTIPVYKPMHDFLKYDFFQTMSVIGGLLLVVALGPGGVSMDEKKKEW [SURF4] | 0.185 | 57.4 | 56.2 | 0.00821 | -0.529 | -2.05
4 | MGRCCFYTAGTLSLLLLVTSVTLLVARVFQKAVDQSIEKKIVLRNGTEAFDSWEKPPLPVYTQFYFFNVTNPEEILRGETPRVEEVGPYTYRELRNKANIQFGDNGTTISAVSNKAYVFERDQSVGDPKIDLIRTLNIPVLTVIEWSQVHFLREIIEAMLKAYQQKLFVTHTVDELLWGYKDEILSLIHVFRPDISPYFGLFYEKNGTNDGDYVFLTGEDSYLNFTKIVEWNGKTSLDWWITDKCNMINGTDGDSFHPLITKDEVLYVFPSDFCRSVYITFSDYESVQGLPAFRYKVPAEILANTSDNAGFCIPEGNCLGSGVLNVSICKNGAPIIMSFPHFYQADERFVSAIEGMHPNQEDHETFVDINPLTGIILKAAKRFQINIYVKKLDDFVETGDIRTMVFPVMYLNESVHIDKETASRLKSMINTTLIITNIPYIIMALGVFFGLVFTWLACKGQGSMDEGTADERAPLIRT [SCARB2] | 0.3 | 58.5 | 60.2 | -0.119 | -2.37 | -3.51
5 | MGRLASRPLLLALLSLALCRGRVVRVPTATLVRVVGTELVIPCNVSDYDGPSEQNFDWSFSSLGSSFVELASTWEVGFPAQLYQERLQRGEILLRRTANDAVELHIKNVQPSDQGHYKCSTPSTDATVQGNYEDTVQVKVLADSLHVGPSARPPPSLSLREGEPFELRCTAASASPLHTHLALLWEVHRGPARRSVLALTHEGRFHPGLGYEQRYHSGDVRLDTVGSDAYRLSVSRALSADQGSYRCIVSEWIAEQGNWQEIQEKAVEVATVVIQPSVLRAAVPKNVSVAEGKELDLTCNITTDRADDVRPEVTWSFSRMPDSTLPGSRVLARLDRDSLVHSSPHVALSHVDARSYHLLVRDVSKENSGYYYCHVSLWAPGHNRSWHKVAEAVSSPAGVGVTWLEPDYQVYLNASKVPGFADDPTELACRVVDTKSGEANVRFTVSWYYRMNRRSDNVVTSELLAVMDGDWTLKYGERSKQRAQDGDFIFSKEHTDTFNFRIQRTTEEDRGNYYCVVSAWTKQRNNSWVKSKDVFSKPVNIFWALEDSVLVVKARQPKPFFAAGNTFEMTCKVSSKNIKSPRYSVLIMAEKPVGDLSSPNETKYIISLDQDSVVKLENWTDASRVDGVVLEKVQEDEFRYRMYQTQVSDAGLYRCMVTAWSPVRGSLWREAATSLSNPIEIDFQTSGPIFNASVHSDTPSVIRGDLIKLFCIITVEGAALDPDDMAFDVSWFAVHSFGLDKAPVLLSSLDRKGIVTTSRRDWKSDLSLERVSVLEFLLQVHGSEDQDFGNYYCSVTPWVKSPTGSWQKEAEIHSKPVFITVKMDVLNAFKYPLLIGVGLSTVIGLLSCLIGYCSSHWCCKKEVQETRRERRRLMSMEMD [PTGFRN] | 0.0152 | 56.7 | 57.1 | -0.133 | -2.55 | -2.42
6 | MGRLDGKVIILTAAAQGIGQAAALAFAREGAKVIATDINESKLQELEKYPGIQTRVLDVTKKKQIDQFANEVERLDVLFNVAGFVHHGTVLDCEEKDWDFSMNLNVRSMYLMIKAFLPKMLAQKSGNIINMSSVASSVKGVVNRCVYSTTKAAVIGLTKSVAADFIQQGIRCNCVCPGTVDTPSLQERIQARGNPEEARNDFLKRQKTGRFATAEEIAMLCVYLASDESAYVTGNPVIIDGGWSL [BDH2] | 0.0418 | 51.4 | 51.3 | -0.101 | 0.0249 | -0.29
7 | MGRRALLLLLLSFLAPWATIALRPALRALGSLHLPTNPTSLPAVAKNYSVLYFQQKVDHFGFNTVKTFNQRYLVADKYWKKNGGSILFYTGNEGDIIWFCNNTGFMWDVAEELKAMLVFAEHRYYGESLPFGDNSFKDSRHLNFLTSEQALADFAELIKHLKRTIPGAENQPVIAIGGSYGGMLAAWFRMKYPHMVVGALAASAPIWQFEDLVPCGVFMKIVTTDFRKSGPHCSESIHRSWDAINRLSNTGSGLQWLTGALHLCSPLTSQDIQHLKDWISETWVNLAMVDYPYASNFLQPLPAWPIKVVCQYLKNPNVSDSLLLQNIFQALNVYYNYSGQVKCLNISETATSSLGTLGWSYQACTEVVMPFCTNGVDDMFEPHSWNLKELSDDCFQQWGVRPRPSWITTMYGGKNISSHTNIVFSNGELDPWSGGGVTKDITDTLVAVTISEGAHHLDLRTKNALDPMSVLLARSLEVRHMKNWIRDFYDSAGKQH [PRCP] | 0.0413 | 58.5 | 54.1 | -0.246 | -0.942 | -2.23
8 | MGRRSSDTEEESRSKRKKKHRRRSSSSSSSDSRTYSRKKGGRKSRSKSRSWSRDLQPRSHSYDRRRRHRSSSSSSYGSRRKRSRSRSRGRGKSYRVQRSRSKSRTRRSRSRPRLRSHSRSSERSSHRRTRSRSRDRERRKGRDKEKREKEKDKGKDKELHNIKRGESGNIKAGLEHLPPAEQAKARLQLVLEAAAKADEALKAKERNEEEAKRRKEEDQATLVEQVKRVKEIEAIESDSFVQQTFRSSKEVKKSVEPSEVKQATSTSGPASAVADPPSTEKEIDPTSIPTAIKYQDDNSLAHPNLFIEKADAEEKWFKRLIALRQERLMGSPVA [RSRC1] | -0.945 | 51.5 | 50.4 | 0.261 | -1.05 | -4.78

Source: the supplement of paper PMC5998384
